Measured values published in patent publication US20250345387A1, “CORONAVIRUS THERAPEUTICS AND TREATMENT METHODS” (priority 2020, published 2025).
Where no end group is shown, it is not given here. Side-chain parts run from the residue outwards. 4‑arm PEG 10 kDa = 10 kDa 4-armed polyethylene glycol

How the values were obtained:
[1] = target: T1, recombinant mouse Tie2Fc (mouse, UniProt Q02858 23-743); assay: tryptophan fluorescence spectroscopy
T1 chain: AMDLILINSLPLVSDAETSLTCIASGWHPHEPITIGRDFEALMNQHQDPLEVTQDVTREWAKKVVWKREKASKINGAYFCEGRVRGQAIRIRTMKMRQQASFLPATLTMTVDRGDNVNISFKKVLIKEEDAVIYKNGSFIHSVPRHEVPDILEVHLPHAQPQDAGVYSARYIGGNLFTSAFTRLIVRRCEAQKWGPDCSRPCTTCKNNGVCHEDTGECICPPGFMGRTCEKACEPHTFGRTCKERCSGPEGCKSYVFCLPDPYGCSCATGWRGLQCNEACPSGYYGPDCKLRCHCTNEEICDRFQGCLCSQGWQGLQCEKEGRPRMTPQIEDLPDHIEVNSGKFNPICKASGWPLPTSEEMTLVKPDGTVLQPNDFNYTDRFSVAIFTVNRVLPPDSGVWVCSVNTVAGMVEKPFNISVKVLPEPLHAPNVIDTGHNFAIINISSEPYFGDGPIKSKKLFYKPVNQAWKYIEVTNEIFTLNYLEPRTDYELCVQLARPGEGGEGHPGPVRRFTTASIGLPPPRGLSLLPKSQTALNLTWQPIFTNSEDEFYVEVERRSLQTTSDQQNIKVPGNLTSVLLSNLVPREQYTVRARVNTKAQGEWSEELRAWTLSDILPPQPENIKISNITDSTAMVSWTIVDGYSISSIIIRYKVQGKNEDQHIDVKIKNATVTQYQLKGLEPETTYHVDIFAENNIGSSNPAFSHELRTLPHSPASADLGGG

[2] = target: T2, recombinant rat Tie2-FC (Rattus norvegicus, UniProt A0ABK0L6J5 19-740); assay: tryptophan fluorescence spectroscopy
T2 chain: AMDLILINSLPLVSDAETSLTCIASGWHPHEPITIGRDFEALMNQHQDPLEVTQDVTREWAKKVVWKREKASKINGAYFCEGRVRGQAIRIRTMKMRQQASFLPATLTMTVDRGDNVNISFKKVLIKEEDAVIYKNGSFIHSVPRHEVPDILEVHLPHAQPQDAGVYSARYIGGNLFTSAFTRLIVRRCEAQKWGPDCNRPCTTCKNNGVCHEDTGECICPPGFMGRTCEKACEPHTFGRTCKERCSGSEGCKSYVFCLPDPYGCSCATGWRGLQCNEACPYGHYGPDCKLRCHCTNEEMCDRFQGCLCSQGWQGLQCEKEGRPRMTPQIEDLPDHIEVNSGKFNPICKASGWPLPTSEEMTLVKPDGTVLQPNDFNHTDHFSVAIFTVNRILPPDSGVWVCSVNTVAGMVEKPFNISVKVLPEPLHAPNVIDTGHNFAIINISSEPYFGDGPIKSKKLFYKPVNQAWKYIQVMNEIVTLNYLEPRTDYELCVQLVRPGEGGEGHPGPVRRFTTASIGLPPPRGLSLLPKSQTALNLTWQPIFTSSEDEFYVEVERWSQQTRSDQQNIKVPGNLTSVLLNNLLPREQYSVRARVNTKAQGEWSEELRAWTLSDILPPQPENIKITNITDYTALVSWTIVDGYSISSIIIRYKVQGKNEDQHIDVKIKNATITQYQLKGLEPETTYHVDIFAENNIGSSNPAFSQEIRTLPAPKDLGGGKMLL

[3] = target: T3, recombinant cynomolgus monkey Tie2-FC (Macaca fascicularis, UniProt G7PS68 23-748); assay: tryptophan fluorescence spectroscopy
T3 chain: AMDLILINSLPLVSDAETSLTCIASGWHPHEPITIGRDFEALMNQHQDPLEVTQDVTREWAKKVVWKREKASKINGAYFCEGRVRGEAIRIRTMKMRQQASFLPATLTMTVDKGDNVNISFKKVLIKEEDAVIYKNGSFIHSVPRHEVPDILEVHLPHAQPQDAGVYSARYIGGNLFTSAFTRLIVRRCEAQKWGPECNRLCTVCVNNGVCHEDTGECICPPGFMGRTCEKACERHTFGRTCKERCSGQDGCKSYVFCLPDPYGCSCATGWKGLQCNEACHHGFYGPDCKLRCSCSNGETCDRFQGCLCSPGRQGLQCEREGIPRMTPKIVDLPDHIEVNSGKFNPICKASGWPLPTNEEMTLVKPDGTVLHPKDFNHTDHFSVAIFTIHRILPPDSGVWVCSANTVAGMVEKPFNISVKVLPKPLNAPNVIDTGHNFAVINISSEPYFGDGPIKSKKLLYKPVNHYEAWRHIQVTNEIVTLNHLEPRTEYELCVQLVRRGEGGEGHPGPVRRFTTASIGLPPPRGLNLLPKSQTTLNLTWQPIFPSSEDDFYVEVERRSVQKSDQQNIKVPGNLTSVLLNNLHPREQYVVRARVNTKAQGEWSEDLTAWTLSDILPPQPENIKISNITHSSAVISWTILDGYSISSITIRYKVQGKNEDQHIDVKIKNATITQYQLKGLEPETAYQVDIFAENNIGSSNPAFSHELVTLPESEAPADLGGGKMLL

[4] = target: T4, recombinant human Tie2Fc (human, UniProt Q02763 23-745); assay: tryptophan fluorescence spectroscopy in solution, non-linear regression one site specific binding
T4 construct: Bought from R&D Systems; not shown: human IgG Fc
Source text: The specific signal was derived by subtraction of the fluorescence intensity generated by ligand alone from the receptor and ligand complex.
Ligand and receptor interaction. […] Data was compiled using SoftMax and analyzed using Prism.

[5] = target: human Tie2 receptor on human endothelial cells (HUVEC, HMVECtert) (human, UniProt Q02763 23-1124); assay: cell-based or functional assay

B1: MPA-Br (peptide)
peptide: HHHRHSF-OH
modifications: not fully specified (N-terminus); also: tetramer: four copies on (bromoacetimide)4-PEG10K
notes: Mpa is not an amino acid; also called mBr; AV-001
With B1 the Kd [1] was 6.82 nM, the Kd [2] was 4.21 nM and the Kd [3] was 0.0229 nM. The Kd [4] was 2.62 nM and the “relative magnitude of Tie2 activation in HMVECtert” value [5] was ~3.3 fold.

B2: parental Vasculotide (peptide)
peptide: C([maleimide-4‑arm PEG 10 kDa])HHHRHSF
modifications: also: tetramer: four copies on 4-armed 10 kDa PEG, mixture of succinimide and thiazine ring products
notes: Manufactured by Bachem; also called VT; parental VT
B2 was tested, and the Kd [1] was 35 nM.
